Measured values as given in the supplement of paper PMC7877785.
± gives the uncertainty stated by the source.

Assay: self-splicing fitness, log relative to wild type (ln ratio); higher = more splicing; Tetrahymena group I intron in knt gene, E. coli kanamycin selection, DiMSum; sequences stand for … in CUCUCU…GGAGGGAAAAGUUAUCAGGCAUGCACCUGGUAGCUAGUCUUUAAACCAAUAGAUUGCAUCGGUUUAAAAGGCAAGACCGUCAAAUUGCGGGAAAGGGGUCAACAGCCGUUCAGUACCAAGUCUCAGGGGAAACUUUGAGAUGGCCUUGCAAAGGGUAUGGUAAUAAGCUGACGGACAUGGUCCUAACCACGCAGCCAAGUCCUAAGUCAACAGAUCUUCUGUUGAUAUGGAUGCAGUUCACAGACUAAAUGUCGGUCGGGGAAGAUGUAUUCUUCUCAUAAGAUAUAGUCGGACCUCUCCUUAAUGGGAGCUAGCGGAUGAAGUGAUGCAACACUGGAGCCGCUGGGAACUAAUUUGUAUGCGAAAGUAUAUUGAUUAGUUUUGGAGUACUCGUGGUCG
Summary of the method: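 Pooled colonies went to amplicon sequencing on an Illumina HiSeq 2500 after six replicate transformations. The plates were LB agar with 100 μg/mL carbenicillin, 50 μM IPTG and 0.2% rhamnose, with or without 25 μg/mL kanamycin, incubated overnight at 37°C or 30°C. The E. coli BL21(DE3) library had all eight P1ex-region intron nucleotides randomised, the intron placed in the knt kanamycin-resistance gene on pET-22b(+). DiMSum fitness is the error-weighted combination of replicate fold changes, kanamycin against none, normalised to wild type.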

Sequence | self-splicing fitness (ln) (30 °C) | self-splicing fitness (ln) (37 °C)
UGCAAGCAAUAUUACGAUCA | 0.00924 ± 0.069 | 0.117 ± 0.077
UGCAAGCAAUAUUACGAUUG | -1.93 ± 0.14 | -1.55 ± 0.12
UGCAAGCAAUAUUACGCCCU | -0.189 ± 0.15 | 0.448 ± 0.14
UGCAAGCAAUAUUACGCCUG | -2.3 ± 0.13 | -2.5 ± 0.25
UGCAAGCAAUAUUACGCGCC | -1.18 ± 0.098 | -0.427 ± 0.11
UGCAAGCAAUAUUACGCGUC | -1.63 ± 0.18 | -2.93 ± 0.26
UGCAAGCAAUAUUACGCUAU | -2.7 ± 0.088 | -1.49 ± 0.088
UGCAAGCAAUAUUACGCUCU | -0.965 ± 0.12 | -0.235 ± 0.13
UGCAAGCAAUAUUACGGACA | -0.633 ± 0.12 | -0.0695 ± 0.16
UGCAAGCAAUAUUACGGACU | -0.763 ± 0.077 | 0.286 ± 0.093
UGCAAGCAAUAUUACGGCUC | -1.8 ± 0.11 | -1.01 ± 0.15
UGCAAGCAAUAUUACGGCUU | – | -1.72 ± 0.28
UGCAAGCAAUAUUACGUACA | -0.594 ± 0.062 | 0.366 ± 0.092
UGCAAGCAAUAUUACGUAUU | -3.36 ± 0.37 | -2.08 ± 0.21
UGCAAGCAAUAUUACGUCCA | -0.254 ± 0.047 | 0.213 ± 0.07
UGCAAGCAAUAUUACGUGCC | -0.791 ± 0.092 | -1.12 ± 0.12
UGCAAGCAAUAUUACGUUGG | -2.87 ± 0.12 | -2.22 ± 0.14
UGCAAGCAAUAUUACGUUUU | -4.29 ± 0.16 | -3.33 ± 0.15
UGCCAGCAAUAUUACGAAAA | -2 ± 0.17 | -1.24 ± 0.14
UGCCAGCAAUAUUACGAAAU | -2.86 ± 0.2 | -1.81 ± 0.17
UGCCAGCAAUAUUACGACCU | -2.35 ± 0.19 | -1.34 ± 0.17
UGCCAGCAAUAUUACGAGUA | -1.49 ± 0.1 | 0.112 ± 0.11
UGCCAGCAAUAUUACGAUAU | -4.12 ± 0.28 | -1.74 ± 0.16
UGCCAGCAAUAUUACGAUCA | -0.629 ± 0.099 | 0.465 ± 0.13
UGCCAGCAAUAUUACGCCGA | -2.56 ± 0.37 | -1.07 ± 0.18

Sequence | self-splicing fitness (ln) (30 °C) | self-splicing fitness (ln) (37 °C)
UGCCAGCAAUAUUACGCGUA | -1.13 ± 0.075 | -0.301 ± 0.083
UGCCAGCAAUAUUACGCUAA | -0.447 ± 0.084 | 0.0253 ± 0.095
UGCCAGCAAUAUUACGCUAU | -0.882 ± 0.16 | -1.13 ± 0.16
UGCCAGCAAUAUUACGGACA | -0.325 ± 0.074 | -0.394 ± 0.09
UGCCAGCAAUAUUACGGAUA | -1.27 ± 0.091 | -0.573 ± 0.1
UGCCAGCAAUAUUACGGAUU | -1.67 ± 0.068 | -0.242 ± 0.074
UGCCAGCAAUAUUACGGCGG | -3.73 ± 0.18 | -1.48 ± 0.13
UGCCAGCAAUAUUACGGGAA | -1.37 ± 0.092 | -0.333 ± 0.1
UGCCAGCAAUAUUACGGGUU | -2.46 ± 0.13 | -2.34 ± 0.12
UGCCAGCAAUAUUACGGUGA | -0.97 ± 0.075 | 0.0352 ± 0.092
UGCCAGCAAUAUUACGGUGG | -3.29 ± 0.13 | -2.97 ± 0.21
UGCCAGCAAUAUUACGUAAA | -1.24 ± 0.093 | -0.956 ± 0.12
UGCCAGCAAUAUUACGUAGU | -3.91 ± 0.21 | -1.87 ± 0.13
UGCCAGCAAUAUUACGUAUA | -1.92 ± 0.11 | -1.62 ± 0.12
UGCCAGCAAUAUUACGUCAC | – | -2.01 ± 0.29
UGCCAGCAAUAUUACGUCAG | -2.49 ± 0.11 | -1.53 ± 0.14
UGCCAGCAAUAUUACGUCGC | -3.68 ± 0.44 | -2.95 ± 0.35
UGCCAGCAAUAUUACGUCUC | -4.62 ± 0.29 | -2.11 ± 0.25
UGCGAGCAAUAUUACGAACU | -1.88 ± 0.11 | 0.0543 ± 0.09
UGCGAGCAAUAUUACGAAGU | -3.37 ± 0.3 | -0.334 ± 0.29
UGCGAGCAAUAUUACGACCG | -1.72 ± 0.17 | 0.112 ± 0.21
UGCGAGCAAUAUUACGAGUC | -3.05 ± 0.21 | -2.27 ± 0.2
UGCGAGCAAUAUUACGAUAA | -3.41 ± 0.23 | -2.01 ± 0.18
UGCGAGCAAUAUUACGCAAA | -3.58 ± 0.28 | -2.04 ± 0.17
UGCGAGCAAUAUUACGCCGG | -3.39 ± 0.34 | –

Sequence | self-splicing fitness (ln) (30 °C) | self-splicing fitness (ln) (37 °C)
UGCGAGCAAUAUUACGCCGU | -3.36 ± 0.23 | -2.54 ± 0.3
UGCGAGCAAUAUUACGCCUG | -3.98 ± 0.22 | -0.862 ± 0.13
UGCGAGCAAUAUUACGCGCG | -2.71 ± 0.2 | -2.72 ± 0.3
UGCGAGCAAUAUUACGCGCU | -3.43 ± 0.36 | –
UGCGAGCAAUAUUACGCGUG | -4.3 ± 0.42 | -1.12 ± 0.25
UGCGAGCAAUAUUACGGAAC | – | -2.25 ± 0.39
UGCGAGCAAUAUUACGGACG | -1.24 ± 0.15 | -1.19 ± 0.17
UGCGAGCAAUAUUACGGCUC | -2.91 ± 0.31 | -3.21 ± 0.41
UGCGAGCAAUAUUACGGGCA | -2.84 ± 0.21 | -1.31 ± 0.18
UGCGAGCAAUAUUACGGGCG | -1.59 ± 0.061 | -0.628 ± 0.086
UGCGAGCAAUAUUACGGUCG | -2.27 ± 0.25 | -2.39 ± 0.27
UGCGAGCAAUAUUACGGUGC | – | -0.943 ± 0.2
UGCGAGCAAUAUUACGGUGG | -3.04 ± 0.23 | -3.1 ± 0.33
UGCGAGCAAUAUUACGUAAA | -2.8 ± 0.1 | -1.77 ± 0.18
UGCGAGCAAUAUUACGUAGG | -3.81 ± 0.18 | -2.76 ± 0.21
UGCGAGCAAUAUUACGUAGU | – | -1.9 ± 0.19
UGCGAGCAAUAUUACGUAUA | -2.89 ± 0.25 | -0.733 ± 0.22
UGCGAGCAAUAUUACGUCUU | -2.61 ± 0.16 | -2.04 ± 0.16
UGCGAGCAAUAUUACGUUUA | -2.19 ± 0.16 | -2.99 ± 0.14
UGCGAGCAAUAUUACGUUUC | – | -2.62 ± 0.36
UGCGAGCAAUAUUACGUUUG | -3.45 ± 0.21 | -2.88 ± 0.21
UGCUAGCAAUAUUACGAAUU | -4.43 ± 0.41 | -1.98 ± 0.17
UGCUAGCAAUAUUACGAUCU | -0.537 ± 0.11 | -0.24 ± 0.1
UGCUAGCAAUAUUACGCGCG | -0.603 ± 0.092 | -1.08 ± 0.12
UGCUAGCAAUAUUACGCGCU | -1.96 ± 0.12 | -0.777 ± 0.13

Sequence | self-splicing fitness (ln) (30 °C) | self-splicing fitness (ln) (37 °C)
UGCUAGCAAUAUUACGCGGC | -3.02 ± 0.38 | –
UGCUAGCAAUAUUACGGAGU | -4.11 ± 0.3 | -2.34 ± 0.24
UGCUAGCAAUAUUACGGGUC | -2.99 ± 0.16 | -2.62 ± 0.18
UGCUAGCAAUAUUACGGUAG | -1.49 ± 0.098 | -0.852 ± 0.13
UGCUAGCAAUAUUACGUCUG | -0.586 ± 0.088 | -0.323 ± 0.095
UGCUAGCAAUAUUACGUGAG | -3.51 ± 0.18 | -1.78 ± 0.21
UGCUAGCAAUAUUACGUGGC | -3.1 ± 0.32 | -2.6 ± 0.35
UGCUAGCAAUAUUACGUGUU | -3.87 ± 0.16 | -2.21 ± 0.12
UGCUAGCAAUAUUACGUUCG | -0.807 ± 0.065 | -0.115 ± 0.091
UGCUAGCAAUAUUACGUUGU | -2.59 ± 0.17 | -3.8 ± 0.34
UGGAAGCAAUAUUACGAAUU | – | -1.99 ± 0.36
UGGAAGCAAUAUUACGACGG | -0.691 ± 0.065 | -0.14 ± 0.084
UGGAAGCAAUAUUACGAGAU | -3.92 ± 0.26 | -2.47 ± 0.21
UGGAAGCAAUAUUACGAGUG | -1.38 ± 0.09 | -0.586 ± 0.12
UGGAAGCAAUAUUACGAUUG | -1.76 ± 0.12 | -0.362 ± 0.12
UGGAAGCAAUAUUACGAUUU | -2.48 ± 0.087 | -1.7 ± 0.092
UGGAAGCAAUAUUACGCGAA | -1.68 ± 0.16 | -1.03 ± 0.15
UGGAAGCAAUAUUACGCGCG | 0.222 ± 0.15 | 0.698 ± 0.15
UGGAAGCAAUAUUACGCGGA | -1.17 ± 0.2 | -1.88 ± 0.23
UGGAAGCAAUAUUACGCUAU | -2.52 ± 0.18 | -2.72 ± 0.29
UGGAAGCAAUAUUACGCUUG | -3.54 ± 0.26 | -2.53 ± 0.29
UGGAAGCAAUAUUACGGACA | -1.03 ± 0.13 | -0.0422 ± 0.11
UGGAAGCAAUAUUACGGAUC | -2.47 ± 0.34 | -1.54 ± 0.24
